Laboratory results published in PMC6509880.

Target: apo-CrHydA1 ([4Fe4S]-CrHydA1, Chlamydomonas reinhardtii [FeFe] hydrogenase HydA1 lacking the [2Fe] subsite) (Chlamydomonas reinhardtii)

H2 evolution (methyl viologen assay, GC) of 0.04 uM apo-CrHydA1 after 60 min at 37 °C with 0.04-1.2 uM [2Fe]^adt-CaHydF; excess of HydF needed for complete activation: 10 fold excess
Substance: [2Fe]^adt-CaHydF (semi-synthetic HydF from Clostridium acetobutylicum loaded with [Fe2(adt)(CO)4(CN)2]^2-) (natural protein)
